Source: the supplement of paper PMC9233669
Variants at the floor of the assay were thinned out.

Columns and labels:
biotinyl-Trp-oxazolone = test: self-aminoacylation, catalytic enhancement (BWO) (fold over background); higher = more active; k-Seq, kA / k0A0; sequences stand for … in GGGAAUGGAUCCACAUCUACGAAUUC…UUCACUGCAGACUUGACGAAGCUG
Method in brief: (§1)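 Mutagenized RNA pools with a 21-nt variable region (0.43 μM) reacted with each biotinyl-aminoacyl-oxazolone at 2–1250 μM. Reactions ran in 50 μL HEPES/NaCl/KCl/MgCl2/CaCl2 buffer with 5% acetonitrile, pH 6.9–7.0, for 90 minutes at room temperature. Streptavidin-captured RNA was quantified by triplicate qPCR and Illumina sequencing, and per-sequence fraction reacted was fit to a pseudo-first-order model with 1000 bootstraps. Catalytic enhancement is median kA divided by the uncatalyzed rate, the low-activity peak of a bimodal Gaussian fit.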

biotinyl-Phe-oxazolone = test: self-aminoacylation, catalytic enhancement (BFO) (fold over background); higher = more active; k-Seq, kA / k0A0; sequences stand for … in GGGAAUGGAUCCACAUCUACGAAUUC…UUCACUGCAGACUUGACGAAGCUG
Method in brief: as §1

biotinyl-Leu-oxazolone = test: self-aminoacylation, catalytic enhancement (BLO) (fold over background); higher = more active; k-Seq, kA / k0A0; sequences stand for … in GGGAAUGGAUCCACAUCUACGAAUUC…UUCACUGCAGACUUGACGAAGCUG
Method in brief: as §1

biotinyl-Val-oxazolone = test: self-aminoacylation, catalytic enhancement (BVO) (fold over background); higher = more active; k-Seq, kA / k0A0; sequences stand for … in GGGAAUGGAUCCACAUCUACGAAUUC…UUCACUGCAGACUUGACGAAGCUG
Method in brief: as §1

biotinyl-Ile-oxazolone = test: self-aminoacylation, catalytic enhancement (BIO) (fold over background); higher = more active; k-Seq, kA / k0A0; sequences stand for … in GGGAAUGGAUCCACAUCUACGAAUUC…UUCACUGCAGACUUGACGAAGCUG
Method in brief: as §1

biotinyl-Met-oxazolone = test: self-aminoacylation, catalytic enhancement (BMO) (fold over background); higher = more active; k-Seq, kA / k0A0; sequences stand for … in GGGAAUGGAUCCACAUCUACGAAUUC…UUCACUGCAGACUUGACGAAGCUG
Method in brief: as §1

Sequence	self-aminoacylation (biotinyl-Trp-oxazolone)	self-aminoacylation (biotinyl-Phe-oxazolone)	self-aminoacylation (biotinyl-Leu-oxazolone)	self-aminoacylation (biotinyl-Val-oxazolone)	self-aminoacylation (biotinyl-Ile-oxazolone)	self-aminoacylation (biotinyl-Met-oxazolone)
AUUCAACUACGUCAUCGGGUG [Fam2.2 aminoacylation ribozyme variant]	4.72	26	6.07	2.95	3.26	4.57
AUUACCGUGGGCAUCGAGUGA [Fam2.1 aminoacylation ribozyme variant]	5.68	34.7	6.2	3.22	3.09	5.35
AUUACCCUGGGCAUUGAGUGA [Fam2.1 aminoacylation ribozyme variant]	11.9	58.7	11.3	4.23	4.38	9.32
CCACACUACAUGCAAUCGGUC [Fam1B.1 aminoacylation ribozyme variant]	0.812	0.877	0.762	0.888	0.737	0.743
AUACACCUAGGUCAUCUGGUG [Fam2.2 aminoacylation ribozyme variant]	1.41	4.68	1.68	1.23	1.4	1.56
UUUACCCUGGUCAUCGAGUGG [Fam2.1 aminoacylation ribozyme variant]	29.3	154	27.3	9.95	8.85	31.5
CUACGUCAAACAAUGGGUCUG [Fam1A.1 aminoacylation ribozyme variant]	1.18	2.25	1.62	1.35	1.38	1.22
AUUCAACUAGGUCAUCCGGUG [Fam2.2 aminoacylation ribozyme variant]	6.62	45.8	8.12	3.72	4.6	5.49
CCACACUUCAAGCAAUCCGUG [Fam1B.1 aminoacylation ribozyme variant]	2.78	26.9	5.32	2.47	2.79	3.21
CUUCAACUAGGUCAUCGGGUG [Fam2.2 aminoacylation ribozyme variant]	4.93	31.8	6.16	3.22	3.17	5.42
CUACUUCAAACACUCCGUCUG [Fam1A.1 aminoacylation ribozyme variant]	0.771	0.78	0.727	0.869	0.772	0.845
CCACAGUUCAAGAAAUCGGUC [Fam1B.1 aminoacylation ribozyme variant]	1.67	1.71	1.22	1.18	1.06	1.22
AUUCACCUAGGUAAUCGGGUC [Fam2.2 aminoacylation ribozyme variant]	0.691	0.508	0.754	0.689	0.866	0.606
CUACUUCAUACAAUCGGUGUG [Fam1A.1 aminoacylation ribozyme variant]	0.545	0.976	1.14	0.956	0.839	0.959
CCAUACUUCAAGCAAUCGAUC [Fam1B.1 aminoacylation ribozyme variant]	0.638	1.01	0.489	0.842	0.666	0.45
AUUCACCUAGGUCACCGGGCG [Fam2.2 aminoacylation ribozyme variant]	4.68	11.3	4.7	4.43	3.96	3.66
CCACACUUCAAGCAUACGGUC [Fam1B.1 aminoacylation ribozyme variant]	0.453	0.63	0.501	0.836	0.564	0.538
AUCCACCUAGGUGAUCGGGUG [Fam2.2 aminoacylation ribozyme variant]	5.98	35.5	5.68	4.45	4.38	6.1
AUUACCAUGGUCAGCGAGUGA [Fam2.1 aminoacylation ribozyme variant]	6.31	30.7	6.19	3.19	3.11	5.49
AUUAUACUGGUCAUCGAGUGA [Fam2.1 aminoacylation ribozyme variant]	5.99	6.45	5.28	2.56	2.91	4.91
AUUAUCCUGGUCAUCCAGUGA [Fam2.1 aminoacylation ribozyme variant]	4.26	11.1	4.27	2.28	2.14	3.69

Sequence	self-aminoacylation (biotinyl-Trp-oxazolone)	self-aminoacylation (biotinyl-Phe-oxazolone)	self-aminoacylation (biotinyl-Leu-oxazolone)	self-aminoacylation (biotinyl-Val-oxazolone)	self-aminoacylation (biotinyl-Ile-oxazolone)	self-aminoacylation (biotinyl-Met-oxazolone)
AUUACCCUGGACAUAGAGUGA [Fam2.1 aminoacylation ribozyme variant]	15.6	100	15	6.12	6.45	15.5
CUACUUCAAUCAAUCGGUGUG [Fam1A.1 aminoacylation ribozyme variant]	4.96	7.44	1.83	1.27	1.18	1.19
CUUCACCUAGGUCAUCGGGUA [Fam2.2 aminoacylation ribozyme variant]	5.72	23.4	7.28	5.19	4.43	6.65
AUGACCCUGGUUAUCGAGUGA [Fam2.1 aminoacylation ribozyme variant]	8.52	15.5	7.14	3.36	3.39	6.78
AUCGCCCUGGUCAUCGAGUGA [Fam2.1 aminoacylation ribozyme variant]	17.8	98.5	16	7.32	7.09	16.5
AUCACCCUGGUCAUCGAAUGA [Fam2.1 aminoacylation ribozyme variant]	0.777	0.93	1.29	1.41	1.26	1.13
CCACACUUCAAGACAUCGGUC [Fam1B.1 aminoacylation ribozyme variant]	0.762	0.815	0.879	0.896	1	0.914
AUCCACCUAGAUCAUCGGGUG [Fam2.2 aminoacylation ribozyme variant]	4.45	23.2	4.88	3.26	3.37	3.25
AUUUCCCUGGUCAUCGCGUGA [Fam2.1 aminoacylation ribozyme variant]	22.5	157	20.9	10.4	9.18	18.9
AUUCACAUUGGUCAUCGGGUG [Fam2.2 aminoacylation ribozyme variant]	8.88	82.8	12.8	5.97	6.31	10.1
CUUCUUCAAACAAUCGGUCGG [Fam1A.1 aminoacylation ribozyme variant]	7.44	10.9	1.24	0.789	0.873	1.12
AAGUCUGCUAAUAGUGGCAAG [Fam3.1 aminoacylation ribozyme variant]	1.17	3.1	0.866	0.765	0.678	0.98
AAGUUUAGUAAUAGUCGCAAG [Fam3.1 aminoacylation ribozyme variant]	1.23	3.24	1.71	1.55	1.85	1.75
AGGUUUGCUAAUAGUCGCCAG [Fam3.1 aminoacylation ribozyme variant]	2.22	1.14	1.52	1.35	1.39	1.51
CCACACUUCAAGCCAUCUGUC [Fam1B.1 aminoacylation ribozyme variant]	0.498	0.711	0.401	0.72	0.493	0.542
CCACUCUUCAAGCAAUCGGUU [Fam1B.1 aminoacylation ribozyme variant]	2.27	2.51	1.16	1.6	1.53	1.53
AUUCACCUCGGUCGUCGGGUG [Fam2.2 aminoacylation ribozyme variant]	2.53	11.4	2.85	3.12	2.42	2.41
AAGUUUGCUAAUAGUAGCAAC [Fam3.1 aminoacylation ribozyme variant]	0.859	1.08	0.631	1.15	1.09	0.942
CUACUUCAAAUCAUCGGUCUG [Fam1A.1 aminoacylation ribozyme variant]	0.65	0.771	0.917	0.855	0.876	0.83
AUUCAUCUAGGCCAUCGGGUG [Fam2.2 aminoacylation ribozyme variant]	3	19	5.22	2.84	2.39	3.38
CUUCCCCUGGUCAUCGAGUGA [Fam2.1 aminoacylation ribozyme variant]	7.51	40.1	6.32	3.42	3.23	5.92
